As usually defined, the kon is the second-order rate constant of association. As a reminder, the Kd is a measure of binding affinity in units of concentration. High values mean weaker binding, low ones tighter binding.

Changes are numbered by the printed parent chain.

In experiment [1] the target is T1, human FcγRIIb extracellular domain with C-terminal His tag (human, UniProt P31994 43-217).
T1 sequence (looked up): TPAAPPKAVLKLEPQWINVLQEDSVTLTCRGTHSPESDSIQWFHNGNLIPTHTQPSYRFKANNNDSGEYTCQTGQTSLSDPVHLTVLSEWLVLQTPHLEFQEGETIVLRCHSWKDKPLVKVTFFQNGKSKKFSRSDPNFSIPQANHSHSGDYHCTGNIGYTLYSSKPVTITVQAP
Nature of the experiment: ratio of SPR KDs, FcγRIIaR over FcγRIIb.

The target in experiment [2] is T2, human FcγRIIa type R (131Arg) extracellular domain with C-terminal His tag (human, UniProt P12318 34-217).
T2 sequence (looked up): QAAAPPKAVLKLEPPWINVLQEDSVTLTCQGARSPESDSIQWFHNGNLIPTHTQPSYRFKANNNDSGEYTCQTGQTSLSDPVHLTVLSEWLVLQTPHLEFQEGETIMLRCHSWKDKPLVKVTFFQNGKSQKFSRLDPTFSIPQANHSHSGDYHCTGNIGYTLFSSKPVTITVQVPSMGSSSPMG
The experiment in a line: ratio of SPR KDs, reference IL6R-B3/IL6R-L.

Experiment [3] addresses T1, human FcγRIIb extracellular domain with …. Nature of the experiment: ratio of SPR KDs, reference IL6R-B3/IL6R-L.
The target in experiment [4] is human IgA (recombinant, variable region from an anti-human IL6R antibody) (human). Nature of the experiment: SPR.
In another experiment the target is T3, FcγRIIaR (human, UniProt P12318 34-217).
T3 sequence (looked up): T2 sequence (looked up)
Nature of the experiment: SPR.

Experiment [5] has as its target T4, FcγRIIa type H extracellular domain with C-terminal His tag (human, UniProt P12318 34-217).
T4 sequence (looked up): T2 sequence (looked up) with R134H
The experiment in a line: SPR. A general note: Surface plasmon resonance follows binding to a sensor surface in real time, without labels.

In experiment [6] the target is human FcγRIa extracellular domain with C-terminal His tag (human, UniProt P12314 16-292). The experiment in a line: SPR.
Sequence of human FcγRIa extracellular domain with C-terminal His tag (P12314 16-292): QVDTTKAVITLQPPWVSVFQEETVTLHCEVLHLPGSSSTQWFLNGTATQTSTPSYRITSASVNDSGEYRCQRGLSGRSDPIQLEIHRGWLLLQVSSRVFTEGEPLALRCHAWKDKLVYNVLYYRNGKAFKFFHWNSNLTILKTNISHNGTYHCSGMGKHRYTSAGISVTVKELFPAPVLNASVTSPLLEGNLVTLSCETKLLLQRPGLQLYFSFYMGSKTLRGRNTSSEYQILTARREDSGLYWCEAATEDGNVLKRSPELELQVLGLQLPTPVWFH
The target of experiment [7] is T5, human FcγRIIa type R (Arg131) extracellular domain with C-terminal His tag (human, UniProt P12318 34-217).
T5 sequence (looked up): T2 sequence (looked up)
The experiment in a line: SPR.

The target of experiment [8] is T6, human FcγRIIb extracellular domain with C-terminal His tag (human, UniProt P31994 43-217).
T6 sequence (looked up): T1 sequence (looked up)
Nature of the experiment: SPR.

The target in experiment [9] is FcγRIIIa type V extracellular domain with C-terminal His tag (human, UniProt P08637 17-208). The experiment in a line: SPR.
Sequence of FcγRIIIa type V extracellular domain with C-terminal His tag (P08637 17-208 F176V): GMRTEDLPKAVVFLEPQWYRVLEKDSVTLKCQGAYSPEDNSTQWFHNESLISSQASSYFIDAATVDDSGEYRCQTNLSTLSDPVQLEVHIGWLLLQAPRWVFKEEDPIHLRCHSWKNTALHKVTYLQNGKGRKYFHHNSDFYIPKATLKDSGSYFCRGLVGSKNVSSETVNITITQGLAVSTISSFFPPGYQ
The next experiment has as its target T7, FcγRIIaH (human, UniProt P12318 34-217).
T7 sequence (looked up): T2 sequence (looked up) with R134H
The experiment in a line: SPR.

Experiment [10] deals with T8, FcγRIIb extracellular domain with C-terminal His tag (human, UniProt P31994 43-217).
T8 sequence (looked up): T1 sequence (looked up)
The experiment in a line: SPR.

Experiment [11] has as its target T8, FcγRIIb extracellular domain with …. Nature of the experiment: SPR. This is another data set of the same source.
The target is the same in experiment [12]. Nature of the experiment: SPR. This is another data set of the same source.
The target of experiment [13] is T9, mouse FcγRIII (mouse, UniProt P08508 31-215).
T9 sequence (looked up): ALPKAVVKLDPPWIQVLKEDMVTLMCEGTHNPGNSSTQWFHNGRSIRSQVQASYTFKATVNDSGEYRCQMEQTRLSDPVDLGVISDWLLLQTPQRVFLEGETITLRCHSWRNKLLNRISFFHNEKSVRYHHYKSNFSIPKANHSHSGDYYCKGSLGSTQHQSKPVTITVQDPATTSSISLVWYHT
The experiment in a line: SPR.

The target of experiment [14] is T10, mouse FcγRIIb (mouse, UniProt P08101 30-210).
T10 sequence (looked up): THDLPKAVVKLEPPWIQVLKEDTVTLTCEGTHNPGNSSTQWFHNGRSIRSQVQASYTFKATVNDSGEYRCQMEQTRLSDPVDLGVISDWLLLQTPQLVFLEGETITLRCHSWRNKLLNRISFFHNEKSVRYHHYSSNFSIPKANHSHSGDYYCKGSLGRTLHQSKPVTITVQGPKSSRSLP
The experiment in a line: SPR.

In experiment [15] the target is T9, mouse FcγRIII. The experiment in a line: SPR. This is another data set of the same source.
In experiment [16] the target is T10, mouse FcγRIIb. The experiment in a line: SPR. The source holds these as a separate data set.

B1: IL6R-BP478/IL6R-L (antibody)
heavy: QVQLQESGPGLVKPSETLSLTCAVSGHSISHDHAWSWVRQPPGEGLEWIGFISYSGITNYNPSLQGRVTISRDNSKNTLYLQMNSLRAEDTAVYYCARSLARTTAMDYWGEGTLVTVSSASTKGPSVFPLAPCSRSTSESTAALGCLVKDYFPEPVTVSWNSGALTSGVHTFPAVLQSSGLYSLSSVVTVPSSSLGTKTYTCNVDHKPSNTKVDKRVESKYGPPCPPCPAPDLLGDDSVFLFPPKPKDTLMISRTPEVTCVVVDVSDEDGEVKFNWYVDGVEVHNAKTKPREEQDNSTYRVVSVLTVLHQDWLNGKEYKCKVSNKALPRPIEKTISKAKGQPREPQVYTLPPSRDELTKNQVSLTCLVKGFYPSDIAVEWESNGQPENNYKTTPPVLDSDGSFFLYSKLTVDKSRWQQGNVFSCSVMHEALHNHYTQESLSLSP
light: not shown
On to B1, for which, in [1], the “KD (IIaR)/KD (IIb)” value came to 28. For the same molecule, the “KD (IIaR) of parent polypeptide/KD (IIaR) of altered polypeptide” value in experiment [2] came out at 2. In experiment [3], the “KD (IIb) of parent polypeptide/KD (IIb) of altered polypeptide” value (“KD (IIb) of parent polypeptide/KD” for short) came to 161.

B2: GA2-IgG1 (antibody, V domains shown)
VH: QVQLVQSGAEVKKPGSSVKVSCKASGGTFSSYAISWVRQAPGQGLEWMGGIIPIFGTANYAQKFQGRVTITADESTSTAYMELSSLRSEDTAVYYCARPRWETAISSDAFDIWGQGTMVTVSS
VL: DIQMTQSPSSLSASVGDRVTITCRASQSISDDLNWYQQKPGKAPKLLIYEASNLQSGVPSRFSGSGSGTDFTLTISSLQPEDFATYYCQQHSSSPLTFGQGTKVEIKR
In the case of B2, the kon in experiment [4] came to 400000 M⁻¹ s⁻¹.

B3: IL6R-BP144/IL6R-L (antibody, human IgG1, kappa)
heavy: QVQLQESGPGLVKPSETLSLTCAVSGHSISHDHAWSWVRQPPGEGLEWIGFISYSGITNYNPSLQGRVTISRDNSKNTLYLQMNSLRAEDTAVYYCARSLARTTAMDYWGEGTLVTVSSASTKGPSVFPLAPSSKSTSGGTAALGCLVKDYFPEPVTVSWNSGALTSGVHTFPAVLQSSGLYSLSSVVTVPSSSLGTQTYICNVNHKPSNTKVDKKVEPKSCDKTHTCPPCPAPELLGDDSVFLFPPKPKDTLMISRTPEVTCVVVDVSHEDPEVKFNWYVDGVEVHNAKTKPREEQYNSTYRVVSVLTVLHQDWLNGKEYKCKVSNAALPAPIEKTISKAKGQPREPQVYTLPPSRDELTKNQVSLTCLVKGFYPSDIAVEWESNGQPENNYKTTPPVLDSDGSFFLYSKLTVDKSRWQQGNVFSCSVMHEALHNHYTQESLSLSP
light: not shown
For the molecule B3, the Kd with FcγRIIaR was 5.9 µM.

B4: IL6R-BP245/IL6R-L (antibody, human IgG1, kappa)
heavy: B3 heavy with E235D, S269Q, H270D, P273G, Y298D, A328D, A332R
light: not shown
Consider B4, for which binding in experiment [5] was characterised by a dissociation constant (Kd) of 23 µM.

B5: IL6R-BP500/IL6R-L (antibody, human IgG1, kappa)
heavy: B3 heavy with V266I, S269A, H270E, P273G, Y298D, A328K
light: not shown
Consider B5, for which the binding result in [6] is given as “binds”. The “KD (IIaR) of parent polypeptide/KD (IIaR) of altered polypeptide” value in experiment [7] came to 1.5. In addition, the “KD (IIb) of parent polypeptide/KD” value in experiment [8] was determined as 128.

B6: IL6R-BP248/IL6R-L (antibody, human IgG1, kappa)
heavy: B3 heavy with E235D, H270D, P273G, Y298D, A332R
light: not shown
The molecule B6 came in with a Kd in experiment [9] of 4400 µM.

B7: IL6R-BP146/IL6R-L (antibody, human IgG1, kappa)
heavy: B3 heavy with L236Y
light: not shown
In the experiment with FcγRIIaH, B7 displayed a Kd of 16 µM. That is a double-digit micromolar value.

B8: IL6R-BP198/IL6R-L (antibody, human IgG1, kappa)
heavy: B3 heavy with E235D, L236Y, D239G, H270D, P273G, A332K
light: not shown
As to B8, the “KD (IIb) of parent polypeptide/KD” value in [10] was 15.7 ratio. Moreover, the “KD (IIaH)/KD (IIb)” value in [11] was determined as 102 ratio. Moreover, in [12], the “KD (IIaR)/KD (IIb)” value is 11 ratio.

B9: VH3/L(WT)-mIgG1 (antibody)
heavy: QVQLQESGPGLVKPSETLSLTCAVSGHSISHDHAWSWVRQPPGEGLEWIGFISYSGITNYNPSLQGRVTISRDNSKNTLYLQMNSLRAEDTAVYYCARSLARTTAMDYWGEGTLVTVSSAKTTPPSVYPLAPGSAAQTNSMVTLGCLVKGYFPEPVTVTWNSGSLSSGVHTFPAVLQSDLYTLSSSVTVPSSTWPSETVTCNVAHPASSTKVDKKIVPRDCGCKPCICTVPEVSSVFIFPPKPKDVLTITLTPKVTCVVVDISKDDPEVQFSWFVDDVEVHTAQTQPREEQFNSTFRSVSELPIMHQDWLNGKEFKCRVNSAAFPAPIEKTISKTKGRPKAPQVYTIPPPKEQMAKDKVSLTCMITDFFPEDITVEWQWNGQPAENYKNTQPIMDTDGSYFVYSKLNVQKSNWEAGNTFTCSVLHEGLHNHHTEKSLSHSPGK
light: not shown
In the experiment with mouse FcγRIII [13], B9 registered a Kd of 0.282 µM.

B10: VH3/L(WT)-mIgG1-MB367 (antibody)
heavy: QVQLQESGPGLVKPSETLSLTCAVSGHSISHDHAWSWVRQPPGEGLEWIGFISYSGITNYNPSLQGRVTISRDNSKNTLYLQMNSLRAEDTAVYYCARSLARTTAMDYWGEGTLVTVSSAKTTPPSVYPLAPGSAAQTNSMVTLGCLVKGYFPEPVTVTWNSGSLSSGVHTFPAVLQSDLYTLSSSVTVPSSTWPSETVTCNVAHPASSTKVDKKIVPRDCGCKPCICEANEVEDVFIFPPKPKDVLTITLTPKVTCVVVDISKDDPEVQFSWFVDDVEVHTAQTQPREEQFNSTFRSVSELPIMHQDWLNGKEFKCRVNSAAFPAPIEKTISKTKGRPKAPQVYTIPPPKEQMAKDKVSLTCMITDFFPEDITVEWQWNGQPAENYKNTQPIMDTDGSYFVYSKLNVQKSNWEAGNTFTCSVLHEGLHNHHT
light: not shown
B10: the “binding ratio compared to mIgG1” value with mouse FcγRIIb [14] was 159; with mouse FcγRIII [15], 6.2. The Kd worked out at 0.00132 µM in the experiment with mouse FcγRIIb [16] and 0.0454 µM with mouse FcγRIII [13].

These data come from US20260217793A1 (Chugai, published 2026).
